Source: patent publication US20040228866A1, “Suppressor genes” (Ludwig Institute for Cancer Research, priority 2000, published 2004)

B1: ASPP2: full length 1128 amino acid protein, SEQ ID NO: 4 (protein, listed as Homo sapiens)
chain: MMPMFLTVYLSNNEQHFTEVPVTPETICRDVVDLCKEPGESDCHLAEVWCGSERPVADNERMFDVLQRFGSQRNEVRFFLRHERPPGRDIVSGPRSQDPSLKRNGVKVPGEYRRKENGVNSPRMDLTLAELQEMASRQQQQIEAQQQLLATKEQRLKFLKQQDQRQQQQVAEQEKLKRLKEIAENQEAKLKKVRALKGHVEQKRLSNGKLVEEIEQMNNLFQQKQRELVLAVSKVEELTRQLEMLKNGRIDSHHDNQSAVAELDRLYKELQLRNKLNQEQNAKLQQQRECLNKRNSEVAVMDKRVNELRDRLWKKKAALQQKENLPVSSDGNLPQQAASAPSRVAAVGPYIQSSTMPRMPSRPELLVKPALPDGSLVIQASEGPMKIQTLPNMRSGAASQTKGSKIHPVGPDWSPSNADLFPSQGSASVPQSTGNALDQVDDGEVPLREKEKKVRPFSMFDAVDQSNAPPSFGTLRKNQSSEDILRDAQVANKNVAKVPPPVPTKPKQINLPYFGQTNQPPSDIKPDGSSQQLSTVVPSMGTKPKPAGQQPRVLLSPSIPSVGQDQTLSPGSKQESPPAAAVRPFTPQPSKDTLLPPFRKPQTVAASSIYSMYTQQQAPGKNFQQAVQSALTKTHTRGPHFSSVYGKPVIAAAQNQQQHPENIYSNSQGKPGSPEPETEPVSSVQENHENERIPRPLSPTKLLPFLSNPYRNQSDADLEALRKKLSNAPRPLKKRSSITEPEGPNGPNIQKLLYQRTTIAAMETISVPSYPSKSASVTASSESPVEIQNPYLHVEPEKEVVSLVPESLSPEDVGNASTENSDMPAPSPGLDYEPEGVPDNSPNLQNNPEEPNPEAPHVLDVYLEEYPPYPPPPYPSGEPEGPGEDSVSMRPPEITGQVSLPPGKRTNLRKTGSERIAHGMRVKFNPLALLLDSSLEGEFDLVQRIIYEVDDPSLPNDEGITALHNAVCAGHTEIVKFLVQFGVNVNAADSDGWTPLHCAASCNNVQVCKFLVESGAAVFAMTYSDMQTAADKCEEMEEGYTQCSQFLYGVQEKMGIMNKGVIYALWDYEPQNDDELPMKEGDCMTIIHREDEDEIEWWWARLNDKEGYVPRNLLGLYPRIKPRQRSLA
B2: ASPP1: Apoptosis Stimulating Protein 1, protein of SEQ ID NO: 2, expressed from a transfected plasmid (protein, listed as Homo sapiens)
chain: MMPMILTVFLSNNEQILTEVPITPETTCRDVVEFCKEPGEGSCHLAEVWRGNERPIPFDHMMYEHLQIWGPRREEVKFFLRHEDSPTENSEQGGRQTQEQRTQRNVINVPGDKRTEYGVGNPRVELTLSELQDMAARQQQQIENQQQMLVAKEQRLHFLKQQERRQQQSISENEKLQKLKERVEAQENKLKKIRAMRGQVDYSKIMNGNLSAEIERFSAMFQEKKQEVQTAILRVDQLSQQLEDLKKGKLNGFQSYNGKLTGPAAVELKRLYQELQIRNQLNQEQNSKLQQQKELLNKRNMEVAMMDKRISELRERLYGKKIQLNRVNGTSSPQSPLSTSGRVAAVGPYIQVPSAGSFPVLGDPIKPQSLSIASNAAHGRSKSANDGNWPTLKQNSSSSVKPVQVAGADWKDPSVEGSVKQGTVSSQPVPFSALGPTEKPGIEIGKVPPPIPGVGKQLPPSYGTYPSPTPLGPGSTSSLERRKEGSLPRPSAGLPSRQRPTLLPATGSTPQPGSSQQIQQRISVPPSPTYPPAGPPAFPAGDSKPELPLTVAIRPFLADKGSRPQSPRKGPQTVNSSSIYSMYLQQATPPKNYQPAAHSALNKSVKAVYGKPVLPSGSTSPSPLPFLHGSLSTGTPQPQPPSESTEKEPEQDGPAAPADGSTVESLPRPLSPTKLTPIVHSPLRYQSDADLEALRRKLANAPRPLKKRSSITEPEGPGGPNIQKLLYQRFNTLAGGMEGTPFYQPSPSQDFMGTLADVDNGNTNANGNLEELPPAQPTAPLPAEPAPSSDANDNELPSPEPEELICPQTTHQTAEPAEDNNNNVATVPTTEQIPSPVAEAPSPGEEQVPPAPLPPASHPPATSTNKRTNLKKPNSERTGHGLRVRFNPLALLLDASLEGEFDLVQRIIYEVEDPSKPNDEGITPLHNAVCAGHHHIVKFLLDFGVNVNAADSDGWTPLHCAASCNSVHLCKQLVESGAAIFASTISDIETAADKCEEMEEGYIQCSQFLYGVQEKLGVMNKGVAYALWDYEAQNSDELSFHEGDALTILRRKDESETEWWWARLGDREGYVPKNLLGLYPRIKPRQRTLA

Legend:
Saos-2 cells = assay: Apoptosis by flow cytometry (CD20-gated, sub-G1 DNA content) in transfected Saos-2 cells; type: cell-based; details: for effect on apoptotic function of p53 mutants 181L and 181C: FIG. 6A; for increase in percentage of cells that die of apoptosis with E2F1: co-expression with E2F1, FIG. 4B; for apoptotic function of p63γ and p73α: co-expression, FIG. 15; for apoptosis when expressed alone: no p53 co-expressed; for effect on apoptosis induced by p53H175-L: transcriptionally inactive, mitochondria-targeted mutant p53, FIG. 9A
Experimental: Apoptosis was identified by the expression of the co-transfected cell surface marker CD20, as described in Samuels-Lev et al. (Mol. Cell 8:781-94, 2001, herein incorporated by reference).
The number of apoptotic cells was determined using the methods described in Example 6.
Cells (10^6) were plated 24-48 hours prior to transfection in 10 cm plates. Cells were grown in DMEM supplemented with 10% FCS and transfected with 2 μg of a plasmid expressing CD20 as a transfection marker. Increasing amounts of ASPP1 and ASPP2 were transfected (7.5 μg, 15 μg and 25 μg). 36 hours after the transfection, both attached and floating cells were harvested and analysed using flow cytometry as follows. The transfected cells were gated based on the expression of CD20. The percentage of apoptotic cells was measured by the accumulation of cells with a sub-G1 DNA content derived from at least three individual experiments.
The transfected cells were analyzed by flow cytometry as described in Example 6.

U2OS and MCF7 cells = assay: Apoptosis by FACS in U2OS and MCF7 cells expressing wild-type p53, with or without cisplatin; type: cell-based, human; details: no cisplatin
Experimental: The transfected cells were gated, and the apoptotic cells identified by FACS as described in Example 6.
Before exposure to cisplatin (5 and 3 μg/ml respectively), U2OS and MCF7 cells were transfected with plasmids encoding HPV16 E6, iASPP, or 53BP2. Thirty hours later, cells were harvested and analysed as above.
Fragments from the 5′ ends of ASPP1, ASPP2 and iASPP cDNA were cloned into a mammalian expression vector in an antisense orientation and their ability to inhibit the protein synthesis determined in vitro. The antisense nucleic acid molecules were amplified by PCR on the respective plasmid clones using primers spanning the following nucleotide regions (relative to the initial ATG): −74 to 923; −253 to 839 and −37 to 536 for ASPP1, ASPP2 and iASPP respectively. The amplified segments were purified with the QIAquick PCR purification kit (QIAGEN) and ligated in the pcDNA3.1/V5-His TOPO vector (Invitrogen) according to the manufacturer's instructions.
U2OS and MCF-7 cells were transfected with the various expression plasmids prior to the treatment with cisplatin and analyzed using FACS as described above.
To determine the anti-apoptotic role of iASPP, both U2OS and MCF-7 cells were transfected with antisense iASPP and cells analyzed as described above. […] A small increase in apoptotic cells was consistently detected (FIG. 7D).

p53 = biological target: T1, p53 (Homo sapiens, UniProt P04637); assay: Co-immunoprecipitation with p53 in transfected Saos-2 cells; type: binding
T1 construct: expressed in transfected cells
T1 sequence (P04637 whole entry): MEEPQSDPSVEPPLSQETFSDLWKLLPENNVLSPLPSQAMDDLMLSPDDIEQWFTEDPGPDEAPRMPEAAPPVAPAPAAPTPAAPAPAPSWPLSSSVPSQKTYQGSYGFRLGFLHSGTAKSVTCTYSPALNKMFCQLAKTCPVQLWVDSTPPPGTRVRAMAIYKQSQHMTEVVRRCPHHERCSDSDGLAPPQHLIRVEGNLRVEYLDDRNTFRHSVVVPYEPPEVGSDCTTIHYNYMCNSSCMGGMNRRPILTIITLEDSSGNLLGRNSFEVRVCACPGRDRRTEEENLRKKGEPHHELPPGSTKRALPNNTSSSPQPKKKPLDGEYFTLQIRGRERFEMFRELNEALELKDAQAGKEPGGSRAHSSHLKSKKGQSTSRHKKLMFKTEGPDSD
Experimental: The cells were lysed in NP40 lysis buffer and 1000 μg of lysate immunoprecipitated with antibodies to iASPP bound to Protein G beads.

Molecule | percentage of apoptotic cells, co-expressed with p53 (Saos-2 cells; Example 11, p53 alone […]%) [%] | effect on apoptotic function of p53 mutants 181L and 181C (Saos-2 cells) | increase in percentage of cells that die of apoptosis with E2F1 (Saos-2 cells) | apoptotic function of p63γ and p73α (Saos-2 cells) | apoptosis when expressed alone (Saos-2 cells) | effect on apoptosis induced by p53H175-L (Saos-2 cells) | apoptosis on expression in cells with endogenous wild-type p53 (U2OS and MCF7 cells) | interaction with p53 by immunoprecipitation and western blot (p53) | transfected cells that die of apoptosis (Saos-2 cells; co-expressed with p53, Example 6, FIGS. 4A and 4C)
B1 | 30 | failed to enhance the apoptotic function of either p53 mutant | only an additive increase | enhanced the apoptotic function of p63γ and p73α | lower level of apoptosis | failed to enhance the apoptotic function of p53H175-L | induced apoptosis | interact in vivo | 
B2 |  | failed to enhance the apoptotic function of either p53 mutant | only an additive increase | enhanced the apoptotic function of p63γ and p73α | lower level of apoptosis | failed to enhance the apoptotic function of p53H175-L | induced apoptosis |  | Approximately 50%
